This note sets out measurements from PMC9638933.

In series [1] the target is LigD (UniProt P9WNV3 1-759). The series is described as follows: fluorescence polarization; EMSA: 50 mM Tris-HCl pH 8.0, 50 mM NaCl, 1 mM DTT, 5 mM MgCl2, 4% glycerol, 0.025 mg/ml BSA, 10 nM DNA, 30 C 20 min; FP: 10 mM Tris-HCl pH 8, 10 mM NaCl, 10% glycerol, 1 mM TCEP, 50 nM DNA, 30 C; ternary EMSA: 20 mM Tris-HCl pH 8.0, 5 mM MgCl2, 5% glycerol, 37 C; bridging: 20 mM Tris-HCl pH 7.5, 50 mM KCl, 5 mM EDTA, 1 mM DTT, 5% glycerol, 40 ug/ml BSA, room temperature. Conditions: protein: recombinant; tags: His (Ni-NTA purified; pMCSG7); label: 5' 6-FAM on strand 1; blunt.

Series [2] has as its target Kucore;LIG (Mycobacterium …, UniProt P9WKD9;P9WNV3 1-238;454-759, |). Nature of the series: EMSA; supershift; EMSA: 50 mM Tris-HCl pH 8.0, 50 mM NaCl, 1 mM DTT, 5 mM MgCl2, 4% glycerol, 0.025 mg/ml BSA, 10 nM DNA, 30 C 20 min; FP: 10 mM Tris-HCl pH 8, 10 mM NaCl, 10% glycerol, 1 mM TCEP, 50 nM DNA, 30 C; ternary EMSA: 20 mM Tris-HCl pH 8.0, 5 mM MgCl2, 5% glycerol, 37 C; bridging: 20 mM Tris-HCl pH 7.5, 50 mM KCl, 5 mM EDTA, 1 mM DTT, 5% glycerol, 40 ug/ml BSA, room temperature. Conditions: protein: recombinant;recombinant; tags: His (Ni-NTA purified; pMCSG7);His (Ni-NTA purified); chain copies: 2;1; label: 5' 6-FAM on strand 1; blunt. A general note: Mobility shift assays separate free from complexed probe on a gel.

The target in series [3] is Kumin;POL (Mycobacterium …, UniProt P9WKD9;P9WNV3 1-259;1-287, |). The series is described as above. As to conditions: protein: recombinant;recombinant; tags: His (Ni-NTA purified; pMCSG7);His (Ni-NTA purified); chain copies: 2;1; label: 5' 6-FAM on strand 1; blunt.
Series [4] has as its target T1, Kucore (Mycobacterium tuberculosis, UniProt P9WKD9 1-238).
T1 sequence: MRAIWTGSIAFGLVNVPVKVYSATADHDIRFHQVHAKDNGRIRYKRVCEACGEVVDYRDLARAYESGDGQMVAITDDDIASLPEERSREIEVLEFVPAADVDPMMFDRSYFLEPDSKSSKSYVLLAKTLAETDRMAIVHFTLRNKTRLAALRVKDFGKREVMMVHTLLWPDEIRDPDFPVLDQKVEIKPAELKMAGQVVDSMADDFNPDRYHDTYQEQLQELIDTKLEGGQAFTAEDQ
The series is described as follows: EMSA; 5 mM Mg2+; EMSA: 50 mM Tris-HCl pH 8.0, 50 mM NaCl, 1 mM DTT, 5 mM MgCl2, 4% glycerol, 0.025 mg/ml BSA, 10 nM DNA, 30 C 20 min; FP: 10 mM Tris-HCl pH 8, 10 mM NaCl, 10% glycerol, 1 mM TCEP, 50 nM DNA, 30 C; ternary EMSA: 20 mM Tris-HCl pH 8.0, 5 mM MgCl2, 5% glycerol, 37 C; bridging: 20 mM Tris-HCl pH 7.5, 50 mM KCl, 5 mM EDTA, 1 mM DTT, 5% glycerol, 40 ug/ml BSA, room temperature. Conditions: protein: recombinant; tags: His (Ni-NTA purified; pMCSG7); chain copies: 2; label: 5' 6-FAM on strand 1; blunt.

The target of series [5] is T2, Kumin (Mycobacterium tuberculosis, UniProt P9WKD9 1-259).
T2 sequence: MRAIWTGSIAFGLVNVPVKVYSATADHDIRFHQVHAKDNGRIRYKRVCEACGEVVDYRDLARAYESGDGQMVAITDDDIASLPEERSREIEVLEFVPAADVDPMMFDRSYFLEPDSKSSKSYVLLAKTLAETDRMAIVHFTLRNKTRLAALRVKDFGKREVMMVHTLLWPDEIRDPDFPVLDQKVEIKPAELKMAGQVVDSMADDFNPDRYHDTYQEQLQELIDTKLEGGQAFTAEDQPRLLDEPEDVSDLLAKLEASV
The description is as above. Conditions: protein: recombinant; tags: His (Ni-NTA purified; pMCSG7); chain copies: 2; label: 5' 6-FAM on strand 1; blunt.

Sequence of LigD (P9WNV3 whole entry): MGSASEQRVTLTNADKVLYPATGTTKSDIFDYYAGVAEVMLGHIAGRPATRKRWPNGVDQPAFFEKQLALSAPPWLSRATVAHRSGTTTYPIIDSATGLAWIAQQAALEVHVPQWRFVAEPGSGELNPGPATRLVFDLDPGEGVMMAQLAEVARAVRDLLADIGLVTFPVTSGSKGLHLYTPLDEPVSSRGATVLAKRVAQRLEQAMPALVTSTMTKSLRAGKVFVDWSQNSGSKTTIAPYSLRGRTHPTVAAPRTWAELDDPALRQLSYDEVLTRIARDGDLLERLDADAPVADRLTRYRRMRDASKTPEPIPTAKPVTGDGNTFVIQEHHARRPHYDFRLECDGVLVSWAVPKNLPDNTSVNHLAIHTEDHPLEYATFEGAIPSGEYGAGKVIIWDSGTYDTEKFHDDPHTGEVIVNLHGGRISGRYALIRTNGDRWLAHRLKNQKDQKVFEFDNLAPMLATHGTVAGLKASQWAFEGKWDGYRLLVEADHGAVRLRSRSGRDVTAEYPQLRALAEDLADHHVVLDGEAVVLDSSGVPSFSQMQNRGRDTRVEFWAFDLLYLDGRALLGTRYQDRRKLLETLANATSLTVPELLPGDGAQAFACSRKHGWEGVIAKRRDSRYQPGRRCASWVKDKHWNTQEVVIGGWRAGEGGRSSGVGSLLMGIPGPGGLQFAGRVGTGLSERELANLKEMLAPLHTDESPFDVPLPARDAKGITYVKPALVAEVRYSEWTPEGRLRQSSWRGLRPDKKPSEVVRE
Sequence of Kucore;LIG (P9WNV3 454-759, one chain of several): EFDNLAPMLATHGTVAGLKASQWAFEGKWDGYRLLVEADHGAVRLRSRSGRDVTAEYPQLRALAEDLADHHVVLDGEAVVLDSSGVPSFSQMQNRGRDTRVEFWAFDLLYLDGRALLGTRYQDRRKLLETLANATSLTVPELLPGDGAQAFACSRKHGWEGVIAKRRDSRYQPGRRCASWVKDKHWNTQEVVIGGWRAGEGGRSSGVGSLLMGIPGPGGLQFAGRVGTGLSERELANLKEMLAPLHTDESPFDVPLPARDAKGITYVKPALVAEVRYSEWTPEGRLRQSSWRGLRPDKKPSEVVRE
Sequence of Kumin;POL (P9WNV3 1-287, one chain of several): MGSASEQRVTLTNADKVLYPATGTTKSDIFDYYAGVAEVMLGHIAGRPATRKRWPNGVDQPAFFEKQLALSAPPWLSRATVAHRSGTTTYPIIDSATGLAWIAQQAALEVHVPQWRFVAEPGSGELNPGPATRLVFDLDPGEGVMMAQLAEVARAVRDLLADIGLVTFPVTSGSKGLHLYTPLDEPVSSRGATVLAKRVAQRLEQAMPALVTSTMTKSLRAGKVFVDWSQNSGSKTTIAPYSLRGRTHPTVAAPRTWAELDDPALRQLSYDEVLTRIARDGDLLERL

B1: 40 bp dsDNA (dsDNA)
DNA 1: CAGGGTAAGTGTGGAGGTGTAGGGAAGGGAATGTTGTCTG
DNA 2: CAGACAACATTCCCTTCCCTACACCTCCACACTTACCCTG
On to B1, for which the Kd in series [1] is 350 ± 30 nM; in series [4], 70 ± 10 nM; in series [5], 460 ± 80 nM. For the same molecule, the binding result in series [2] and in series [3] was “binds” throughout.

Broadly, the Kd is the free concentration of one partner at which half of the binding sites on the other are occupied at equilibrium, for simple one-to-one binding.
